Test results: the Immune Epitope Database (IEDB)

Assays:
HLA-B*18:01 = assay: IEDB peptide-MHC binding, purified MHC/competitive/fluorescence; filed as Kd, often an IC50 or EC50 that approximates it; ≥ and ≤ were set here for values at or beyond the usual limits of such assays
HLA-A*69:01 = assay: as above
HLA-A*02:01 [1] = assay: as above
HLA-B*39:01 = assay: as above
HLA-B*27:03 = assay: as above
HLA-A*02:12 = assay: IEDB peptide-MHC binding, purified MHC/direct/fluorescence; filed as Kd, often an IC50 or EC50 that approximates it; ≥ and ≤ were set here for values at or beyond the usual limits of such assays
HLA-A*02:16 = assay: as above
HLA-A*02:19 = assay: as above
HLA-A*03:01 = assay: as above
HLA-A*02:11 = assay: as above
HLA-A*02:03 = assay: as above
HLA-A*26:01 [2] = assay: as above; conditions: source organism: Orthohantavirus moroense
HLA-A*68:02 = assay: as above
HLA-B*15:01 [3] = assay: as above; conditions: source organism: Orthohantavirus moroense
HLA-B*51:01 = assay: IEDB peptide-MHC binding, purified MHC/competitive/fluorescence; filed as Kd, often an IC50 or EC50 that approximates it; ≥ and ≤ were set here for values at or beyond the usual limits of such assays
HLA-B*15:17 = assay: as above
HLA-B*57:01 = assay: as above
HLA-B*46:01 = assay: as above
HLA-A*26:01 [4] = assay: as above
HLA-A*02:01 [5] = assay: IEDB peptide-MHC binding, purified MHC/direct/fluorescence; filed as Kd, often an IC50 or EC50 that approximates it; ≥ and ≤ were set here for values at or beyond the usual limits of such assays; conditions: source organism: Homo sapiens
HLA-C*15:02 = assay: as above; conditions: source organism: Orthohantavirus dobravaense
HLA-B*58:01 = assay: as above
HLA-A*11:01 = assay: as above; conditions: source organism: Orthohantavirus hantanense
HLA-A*24:02 = assay: IEDB peptide-MHC binding, purified MHC/competitive/fluorescence; ≥ and ≤ were set here for values at or beyond the usual limits of such assays; conditions: source organism: Sudan ebolavirus
HLA-A*29:02 = assay: IEDB peptide-MHC binding, purified MHC/direct/fluorescence; filed as Kd, often an IC50 or EC50 that approximates it; ≥ and ≤ were set here for values at or beyond the usual limits of such assays; conditions: source organism: Zaire ebolavirus
HLA-B*15:01 [6] = assay: IEDB peptide-MHC binding, purified MHC/competitive/fluorescence; filed as Kd, often an IC50 or EC50 that approximates it; ≥ and ≤ were set here for values at or beyond the usual limits of such assays; conditions: source organism: Zaire ebolavirus
HLA-A*24:03 = assay: IEDB peptide-MHC binding, purified MHC/direct/fluorescence; filed as Kd, often an IC50 or EC50 that approximates it; ≥ and ≤ were set here for values at or beyond the usual limits of such assays; conditions: source organism: Zaire ebolavirus
HLA-B*27:05 = assay: as above; conditions: source organism: Sudan ebolavirus - Maleo (1979)
[7] = source organism: Orthohantavirus puumalaense
[8] = source organism: Limestone Canyon virus
[9] = source organism: Zaire ebolavirus

Sequence: ATKDSFQSF
- Kd (HLA-B*18:01; [7]): ≥ 20 µM
- Kd (HLA-A*69:01; [7]): ≥ 20 µM
- Kd (HLA-A*02:01 [1]; [7]): ≥ 20 µM
- Kd (HLA-B*39:01; [7]): ≥ 20 µM
- Kd (HLA-B*27:03; [7]): ≥ 20 µM
- Kd (HLA-A*02:12; [8]): ≥ 20 µM
- Kd (HLA-A*02:16; [8]): ≥ 20 µM
- Kd (HLA-A*02:19; [8]): ≥ 20 µM
- Kd (HLA-A*03:01; [8]): ≥ 20 µM
- Kd (HLA-A*02:11; [8]): ≥ 20 µM
- Kd (HLA-A*02:03; [8]): ≥ 20 µM
- Kd (HLA-A*26:01 [2]): 0.556 µM
- Kd (HLA-A*68:02; [8]): ≥ 20 µM
- Kd (HLA-B*15:01 [3]): 0.372 µM

Sequence: FQWHEAMFL
- Kd (HLA-A*69:01; source organism: Homo sapiens): ≥ 20 µM
- Kd (HLA-B*51:01; source organism: Homo sapiens): ≥ 20 µM
- Kd (HLA-B*15:17; source organism: Homo sapiens): ≥ 20 µM
- Kd (HLA-B*57:01; source organism: Homo sapiens): ≥ 20 µM
- Kd (HLA-B*27:03; source organism: Homo sapiens): ≥ 20 µM
- Kd (HLA-B*46:01; source organism: Homo sapiens): ≥ 20 µM
- Kd (HLA-A*26:01 [4]; source organism: Homo sapiens): ≥ 20 µM
- Kd (HLA-A*02:01 [5]): 0.0002 µM

Sequence: ISNQEPLKL
- Kd (HLA-C*15:02): 0.009 µM
- Kd (HLA-B*58:01; source organism: Orthohantavirus hantanense): 0.105 µM
- Kd (HLA-A*11:01): 18.6 µM

Sequence: KCNPNLHYW
- Kd (HLA-B*18:01; [9]): ≥ 20 µM
- Kd (HLA-A*69:01; [9]): ≥ 20 µM
- Kd (HLA-A*02:01 [1]; [9]): ≥ 20 µM
- Kd (HLA-B*39:01; [9]): ≥ 20 µM
- Kd (HLA-B*27:03; [9]): ≥ 20 µM
- Kd (HLA-B*46:01; [9]): ≥ 20 µM
- Kd (HLA-A*26:01 [4]; [9]): ≥ 20 µM
- IC50 (HLA-A*24:02): 0.376 µM
- Kd (HLA-A*02:12; [9]): ≥ 20 µM
- Kd (HLA-B*58:01; source organism: Ebola virus - Eckron (Zaire, 1976)): 2.6 µM
- Kd (HLA-A*29:02): ≥ 20 µM
- Kd (HLA-A*02:16; [9]): ≥ 20 µM
- Kd (HLA-A*02:19; [9]): ≥ 20 µM
- Kd (HLA-A*03:01; [9]): ≥ 20 µM
- Kd (HLA-A*02:11; [9]): ≥ 20 µM
- Kd (HLA-A*02:03; [9]): ≥ 20 µM
- Kd (HLA-A*68:02; [9]): ≥ 20 µM

Sequence: KRLQILGYL
- Kd (HLA-B*18:01; [9]): ≥ 20 µM
- Kd (HLA-A*69:01; [9]): ≥ 20 µM
- Kd (HLA-B*51:01; [9]): ≥ 20 µM
- Kd (HLA-B*15:17; [9]): ≥ 20 µM
- Kd (HLA-B*57:01; [9]): ≥ 20 µM
- Kd (HLA-A*02:01 [1]; [9]): ≥ 20 µM
- Kd (HLA-B*39:01; [9]): ≥ 20 µM
- Kd (HLA-B*46:01; [9]): ≥ 20 µM
- Kd (HLA-A*26:01 [4]; [9]): ≥ 20 µM
- Kd (HLA-B*15:01 [6]): ≥ 20 µM
- Kd (HLA-A*02:12; [9]): ≥ 20 µM
- Kd (HLA-A*29:02): ≥ 20 µM
- Kd (HLA-A*02:16; [9]): ≥ 20 µM
- Kd (HLA-A*02:19; [9]): ≥ 20 µM
- Kd (HLA-A*03:01; [9]): ≥ 20 µM
- Kd (HLA-A*02:03; [9]): ≥ 20 µM
- Kd (HLA-A*24:03): ≥ 20 µM
- Kd (HLA-B*27:05): 0.204 µM
- Kd (HLA-A*68:02; [9]): ≥ 20 µM
